Laboratory results published in the supplement of paper PMC7877785.
± gives the uncertainty stated by the source.

Test: self-splicing fitness, log relative to wild type (ln ratio); higher = more splicing; Tetrahymena group I intron in knt gene, E. coli kanamycin selection, DiMSum; sequences stand for … in CUCUCU…GGAGGGAAAAGUUAUCAGGCAUGCACCUGGUAGCUAGUCUUUAAACCAAUAGAUUGCAUCGGUUUAAAAGGCAAGACCGUCAAAUUGCGGGAAAGGGGUCAACAGCCGUUCAGUACCAAGUCUCAGGGGAAACUUUGAGAUGGCCUUGCAAAGGGUAUGGUAAUAAGCUGACGGACAUGGUCCUAACCACGCAGCCAAGUCCUAAGUCAACAGAUCUUCUGUUGAUAUGGAUGCAGUUCACAGACUAAAUGUCGGUCGGGGAAGAUGUAUUCUUCUCAUAAGAUAUAGUCGGACCUCUCCUUAAUGGGAGCUAGCGGAUGAAGUGAUGCAACACUGGAGCCGCUGGGAACUAAUUUGUAUGCGAAAGUAUAUUGAUUAGUUUUGGAGUACUCGUGGUCG
Method in brief: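 DiMSum derived fitness as the error-weighted combination of fold changes across replicates, kanamycin versus no kanamycin, normalised to wild type. E. coli BL21(DE3) held the library, which randomised all eight P1ex-region intron nucleotides within the knt kanamycin-resistance gene on pET-22b(+). Six replicate transformations grew overnight at 37°C or 30°C on LB agar with or without 25 μg/mL kanamycin, also containing 100 μg/mL carbenicillin, 50 μM IPTG and 0.2% rhamnose, and pooled colonies were amplicon-sequenced on an Illumina HiSeq 2500.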

Sequence	self-splicing fitness (ln) (30 °C)	self-splicing fitness (ln) (37 °C)
UGGCAGCAAUAUUACGGUAG	-0.874 ± 0.062	-0.684 ± 0.084
AAACAGCAAUAUUACGGGCC	-3.42 ± 0.17	-2.29 ± 0.16
UACUAGCAAUAUUACGCUUA	-1.38 ± 0.11	-0.588 ± 0.11
AUAAAGCAAUAUUACGACGG	-1.66 ± 0.096	-0.375 ± 0.12
AGGAAGCAAUAUUACGCCGA	-1.95 ± 0.17	-0.0948 ± 0.12
GUUGAGCAAUAUUACGUUUC	-2.09 ± 0.2	-3.1 ± 0.34
AACAAGCAAUAUUACGGGUA	-0.841 ± 0.063	-0.307 ± 0.071
CGAAAGCAAUAUUACGUAUA	-3.52 ± 0.17	-2.99 ± 0.21
AAAAAGCAAUAUUACGGGUU	-1.38 ± 0.075	-1.37 ± 0.11
GAAAAGCAAUAUUACGAUUU	-0.346 ± 0.052	-0.372 ± 0.073
UUUUAGCAAUAUUACGGCGA	-0.835 ± 0.17	0.114 ± 0.18
UUAAAGCAAUAUUACGCCCG	-0.0363 ± 0.09	0.273 ± 0.11
CGUAAGCAAUAUUACGAUCA	-1.17 ± 0.11	-0.755 ± 0.12
AUAGAGCAAUAUUACGGAAA	-2.73 ± 0.22	-2.19 ± 0.38
UGCGAGCAAUAUUACGCUCA		0.239 ± 0.26
AUAAAGCAAUAUUACGUAGC	-3.74 ± 0.27	-1.26 ± 0.2
CGCCAGCAAUAUUACGAUGU	-2.9 ± 0.12	-1.25 ± 0.1
AUGUAGCAAUAUUACGCAGA	-2.74 ± 0.36	0.109 ± 0.18
CAAUAGCAAUAUUACGUGGC	-3.53 ± 0.16	-2.72 ± 0.2
UCCAAGCAAUAUUACGUGCA	-0.24 ± 0.083	0.425 ± 0.11
AAAGAGCAAUAUUACGUGUC	-3.42 ± 0.15	-2.2 ± 0.12
UGCCAGCAAUAUUACGGAAA	-1.8 ± 0.1	-0.0875 ± 0.13
CCGGAGCAAUAUUACGCGUC		-2.18 ± 0.39
CCUGAGCAAUAUUACGUUUC	-3.69 ± 0.25	-2.81 ± 0.28

Sequence	self-splicing fitness (ln) (30 °C)	self-splicing fitness (ln) (37 °C)
UCCAAGCAAUAUUACGUUGU	-3.79 ± 0.16	-1.7 ± 0.13
ACUUAGCAAUAUUACGUAGG	-1.25 ± 0.079	-1.12 ± 0.11
CAUUAGCAAUAUUACGCGGC	-3.98 ± 0.28	-1.8 ± 0.28
GGCCAGCAAUAUUACGCAAU	-1.17 ± 0.098	-1.2 ± 0.09
GAUUAGCAAUAUUACGACAC	-0.38 ± 0.17	-1.07 ± 0.17
UAAAAGCAAUAUUACGGAAU	-3.12 ± 0.17	-2.18 ± 0.2
UGUCAGCAAUAUUACGUAGC	-3.11 ± 0.2	-2.17 ± 0.19
AGUCAGCAAUAUUACGACUU	-2.13 ± 0.11	-1.96 ± 0.19
CCCAAGCAAUAUUACGACUG	-3.41 ± 0.14	-3.49 ± 0.23
UCAAAGCAAUAUUACGCCCC	-2.12 ± 0.39	-1.54 ± 0.37
UAUAAGCAAUAUUACGCGCG	-0.131 ± 0.11	-0.655 ± 0.14
GAAAAGCAAUAUUACGUGCA	-0.843 ± 0.073	-0.0478 ± 0.085
GGUGAGCAAUAUUACGCUGU	-3.68 ± 0.34	-1.64 ± 0.27
UCUUAGCAAUAUUACGUUAG	-3.78 ± 0.4	-1.17 ± 0.21
GCCUAGCAAUAUUACGGCCC	-3.4 ± 0.48	-0.535 ± 0.27
CAACAGCAAUAUUACGGAAG	-0.947 ± 0.045	-0.607 ± 0.061
GAUAAGCAAUAUUACGUACU	-0.466 ± 0.089	-0.373 ± 0.12
AUUCAGCAAUAUUACGAAGC	-3.62 ± 0.27	-1.32 ± 0.17
GGAAAGCAAUAUUACGUCUA	-0.626 ± 0.11	0.689 ± 0.14
ACGCAGCAAUAUUACGGUAC	-1.03 ± 0.18	-2.48 ± 0.45
UCGAAGCAAUAUUACGGCAA	-1.81 ± 0.19	-1.72 ± 0.17
GAUCAGCAAUAUUACGCGUG	-0.471 ± 0.048	0.0677 ± 0.066
UUACAGCAAUAUUACGCGGU	-2.9 ± 0.12	-3.15 ± 0.24
AAUCAGCAAUAUUACGCCGU	-0.744 ± 0.085	-0.531 ± 0.099
